Assay results as given in patent US20040142357A1 (BETH ISRAEL DEACONESS MEDICAL CENTER, published 2004).
Values belong to the binder of their own block, whether it stands above or below them.

Experiments:
[1] = target: T1, GST (glutathione-S-transferase alone, on glutathione beads) (UniProt P08515 1-218 = GST); experiment: GST pulldown from HeLa lysates, immunoblot with anti-GFP
T1 construct: Control protein; also called GST tag
Experimental: (§1) GST pulldown, immunoprecipitation and immunoblotting analysis were performed as described (Lu et al., 1999; Shen et al., 1998). Briefly, relevant proteins were expressed in HeLa or HT1080 cells by transient transfection, or translated in vitro using the TNT coupled transcription/translation kit (Promega) in the presence of [³⁵S]-Met, followed by lysis or dilution in a buffer containing 50 mM HEPES, pH 7.5, 150 mM NaCl, 100 mM NaF, 1 mM sodium orthovanadate, 10% glycerol, 1% Triton X100, 10 μg/ml aprotinin, 10 μg/ml leupeptin, 50 μg/ml phenylmethylsulfonyl fluoride and 1 mM DTT. The cellular supernatants were incubated with 1 μM GST or GST fusion proteins for 1 hr at 4° C. and 15 μl of glutathione agarose beads were then added, followed by further incubation for 2 h at 4° C. The precipitated proteins were washed 4 times in the same buffer and subjected to immunoblotting analysis. Other antibodies used for immunoprecipitation and immunoblotting analysis include anti-Pin2/TRF1 (Shen et al., 1997) and anti-hTERT antibodies (Novus). Membranes containing RNAs isolated from different human tissues (Clontech) were hybridized to the C-terminal coding sequence of PinX1 and then stripped, followed by reprobing with the house-keeping gene GAPDH for loading control.
(§2) To map the region in PinX1 that interacts with Pin2, we expressed different PinX1 fragments in HeLa cells as GFP fusion proteins (FIG. 3E), and then subjected them to GST pulldown experiments with GST-Pin2.

GST-Pin2 = target: T2, GST-Pin2 (human, UniProt P54274 2-439); experiment: as above
T2 construct: Produced as described in Shen et al., 1997; also called GST-Pin2 beads (Pin2); not shown: glutathione-S-transferase (GST) tag
T2 sequence: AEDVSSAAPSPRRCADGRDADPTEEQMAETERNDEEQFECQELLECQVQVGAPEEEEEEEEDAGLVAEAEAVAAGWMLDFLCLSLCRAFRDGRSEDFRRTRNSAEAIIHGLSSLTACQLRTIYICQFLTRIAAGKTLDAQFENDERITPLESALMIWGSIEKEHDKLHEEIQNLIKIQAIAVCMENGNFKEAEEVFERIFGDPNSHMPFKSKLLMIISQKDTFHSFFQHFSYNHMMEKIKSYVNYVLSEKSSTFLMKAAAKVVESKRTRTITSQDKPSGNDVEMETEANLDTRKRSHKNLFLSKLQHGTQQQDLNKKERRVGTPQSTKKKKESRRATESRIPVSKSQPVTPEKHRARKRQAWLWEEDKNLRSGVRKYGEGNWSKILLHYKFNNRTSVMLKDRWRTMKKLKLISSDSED
Experimental: as §1, §2

[2] = target: telomerase of HT1080 cells (telomerase-containing fraction, or cellular telomerase in stable HT1080 lines) (human, UniProt O14746 1-1132, limits assumed); experiment: cell-based or functional assay
[3] = target: T1, GST (glutathione-S-transferase alone, …); experiment: GST pulldown from HeLa lysates, immunoblot with anti-HA
Experimental: as §1, with “control. […]” for “control.”

T1 sequence (P08515 whole entry): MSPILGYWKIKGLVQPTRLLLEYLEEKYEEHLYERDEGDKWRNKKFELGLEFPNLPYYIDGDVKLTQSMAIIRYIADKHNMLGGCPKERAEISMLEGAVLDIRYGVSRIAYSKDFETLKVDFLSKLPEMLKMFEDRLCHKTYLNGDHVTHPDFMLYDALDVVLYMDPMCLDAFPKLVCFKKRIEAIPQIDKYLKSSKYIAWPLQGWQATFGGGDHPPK
Sequence of telomerase of HT1080 cells (telomerase-containing fraction, or cellular telomerase in stable HT1080 lines) (O14746 whole entry): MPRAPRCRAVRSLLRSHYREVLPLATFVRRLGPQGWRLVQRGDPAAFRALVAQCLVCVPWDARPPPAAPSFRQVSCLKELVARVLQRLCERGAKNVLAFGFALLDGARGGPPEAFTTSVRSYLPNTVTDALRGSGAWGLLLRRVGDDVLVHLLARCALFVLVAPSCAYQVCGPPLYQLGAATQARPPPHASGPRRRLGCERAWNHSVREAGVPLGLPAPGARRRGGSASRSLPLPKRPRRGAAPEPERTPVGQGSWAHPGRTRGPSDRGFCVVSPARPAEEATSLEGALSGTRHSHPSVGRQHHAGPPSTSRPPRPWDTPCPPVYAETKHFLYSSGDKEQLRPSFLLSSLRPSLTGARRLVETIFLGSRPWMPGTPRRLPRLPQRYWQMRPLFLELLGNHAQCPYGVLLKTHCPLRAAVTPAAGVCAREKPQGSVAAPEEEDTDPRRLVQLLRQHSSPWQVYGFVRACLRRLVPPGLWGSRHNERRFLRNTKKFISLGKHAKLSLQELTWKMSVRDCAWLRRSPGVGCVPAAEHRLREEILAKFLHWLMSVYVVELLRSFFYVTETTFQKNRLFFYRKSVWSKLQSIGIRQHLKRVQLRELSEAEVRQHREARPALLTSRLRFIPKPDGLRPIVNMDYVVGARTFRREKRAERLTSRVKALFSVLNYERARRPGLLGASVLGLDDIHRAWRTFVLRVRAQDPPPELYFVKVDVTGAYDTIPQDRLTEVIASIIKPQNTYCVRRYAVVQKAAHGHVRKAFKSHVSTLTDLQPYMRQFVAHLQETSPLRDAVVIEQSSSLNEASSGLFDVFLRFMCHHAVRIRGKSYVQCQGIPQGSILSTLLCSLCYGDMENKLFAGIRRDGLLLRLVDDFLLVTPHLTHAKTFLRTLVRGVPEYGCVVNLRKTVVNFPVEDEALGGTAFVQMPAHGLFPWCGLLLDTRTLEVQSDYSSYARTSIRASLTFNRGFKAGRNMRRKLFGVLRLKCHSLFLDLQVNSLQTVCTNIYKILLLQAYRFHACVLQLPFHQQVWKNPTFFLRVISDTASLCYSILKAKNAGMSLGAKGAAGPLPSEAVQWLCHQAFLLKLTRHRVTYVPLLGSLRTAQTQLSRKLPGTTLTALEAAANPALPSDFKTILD

binding result [1]: no binding (tested: 1 µM)
binding result (GST-Pin2): no binding (tested: 1 µM)
B1: GFP fusion of the N-terminal 142 amino acid fragment of PinX1 (other)
chain: MSMLAERRRKQKWAVDPQNTAWSNDDSKFGQRMLEKMGWSKGKGLGAQEQGATDHIKVQVKNNHLGLGATINNEDNWIAHQDDFNQLLAELNTCHGQETTDSSDKKEKKSFSLEEKSKISKNRVHYMKFTKGKDLSSRSKTD
notes: Expressed in HeLa cells; also called GFP-PinX1-N; PinX1-N; not shown: GFP fusion partner

IC50 of inhibition of telomerase activity in vitro (TRAP assay) [2]: ~50 nM
B2: GST-PinX1-C (GST fusion of the C-terminal 74 amino acid fragment of PinX1, the telomerase inhibitory domain TID) (other, not shown: a dimerising Fc or GST)
chain: CAPAEKQLRGPCWDQSSKASAQDAGDHVQPPEGRDFTLKPKKRRGKKKLQKPVEIAEDATLEETLVKKKKKKDSK

binding result [1]: no binding (tested: 1 µM)
B3: GFP fusion of the PinX1 254-328 amino acid fragment (other)
chain: B2 chain
notes: Expressed in HeLa cells; also called GFP-PinX1-C; C-terminal 74 amino acid fragment; not shown: GFP fusion partner

IC50 of inhibition of telomerase activity in vitro (TRAP assay) [2]: ~50 nM
B4: GST-PinX1 (N-terminal GST fusion of full length PinX1) (other, not shown: a dimerising Fc or GST)
chain: MSMLAERRRKQKWAVDPQNTAWSNDDSKFGQRMLEKMGWSKGKGLGAQEQGATDHIKVQVKNNHLGLGATINNEDNWIAHQDDFNQLLAELNTCHGQETTDSSDKKEKKSFSLEEKSKISKNRVHYMKFTKGKDLSSRSKTDLDCIFGKRQSKKTPEGDASPSTPEENETTTTSAFTIQEYFAKPVAALKNKPQVPVPGSDISETQVERKRGKKRNKEATGKDVESYLQPKAKRHTEGKPERAEAQERVAKKKCAPAEKQLRGPCWDQSSKASAQDAGDHVQPPEGRDFTLKPKKRRGKKKLQKPVEIAEDATLEETLVKKKKKKDSK

binding result [1]: no binding (tested: 1 µM)
B5: GFP-PinX1 (full length PinX1 as a GFP fusion protein) (other)
chain: B4 chain
notes: Expressed in HeLa cells; not shown: GFP fusion partner

fold decrease in telomerase activity in stable HT1080 cells (TRAP assay) [2]: ~5 fold
binding result [3]: no binding (tested: 1 µM)
B6: HA-PinX1 (PinX1 with an N-terminal HA epitope tag) (other, not shown: small tags and cut ends)
chain: B4 chain
notes: Expressed in HeLa or HT1080 cells; also called transfected PinX1 protein; 50 kDa HA-PinX1 protein

binding result [1]: no binding (tested: 1 µM)
B7: GFP fusion of the PinX1 C-terminal 142-328 amino acid fragment (other)
chain: DLDCIFGKRQSKKTPEGDASPSTPEENETTTTSAFTIQEYFAKPVAALKNKPQVPVPGSDISETQVERKRGKKRNKEATGKDVESYLQPKAKRHTEGKPERAEAQERVAKKKCAPAEKQLRGPCWDQSSKASAQDAGDHVQPPEGRDFTLKPKKRRGKKKLQKPVEIAEDATLEETLVKKKKKKDSK
notes: as for B5
